From publication PMC10957665, “The C-terminal selenenylsulfide of extracellular/non-reduced thioredoxin reductase endows this protein with selectivity to small-molecule electrophilic reagents under oxidative conditions” (Frontiers in Molecular Biosciences, 2024) come the findings set out here.

Series [1] deals with the molecule itself. As to the kind of experiment: cross-linking; diamide-induced covalent (disulfide/selenenylsulfide) complex: TrxR1 or a TrxR1 mutant with a 2-fold concentration of hTrx1, or one protein alone, 10 mM diamide, 30 min at room temperature; non-reducing SDS-PAGE, Coomassie stain.
Series [2] deals with the molecule itself. Kind of series: cross-linking; H2O2 as thiol oxidant in place of diamide; unpublished (Zhong's observation).

Changes are numbered by the printed parent chain.

B1: Cys73Ala mutant of hTrx1 (natural protein, human, UniProt P10599 1-105, looked up)
chain: MVKQIESKTAFQEALDAAGDKLVVVDFSATWCGPCKMIKPFFHSLSEKYSNVIFLEVDVDDCQDVASECEVKAMPTFQFFKKGQKVGEFSGANKEKLEATINELV
notes: Human cytosolic thioredoxin (hTrx1) with Cys73 replaced by Ala; also called hTrx1 mutant in which Cys73 was substituted by Ala
Regarding B1, the “stoichiometry N” value in series [1] worked out at 2.

B2: human cytosolic thioredoxin (hTrx1) (natural protein, UniProt P10599 1-105, looked up)
chain: B1 chain with A73C
notes: Human cytosolic thioredoxin (hTrx1); freshly DTT-treated, free thiol on surface Cys73; also called human cytosolic Trx; source: purified according to a previously described method (Zhai and Zhong, 2010); incubated with DTT and dialysed before use
For the protein B2, the “stoichiometry N” value in series [2] is 2.
